Data on 17 sequences can be found in the DeepSol protein solubility set.

The series in a line: soluble on expression in E. coli; label from the status in PepcDB or PDB records.
With “MSLTQKRLGLIMNGITGRMGLNQHLIRSVVAIRAQGGVPLSDGTKVQLDPILIGRNADKVEGLAKQYGIERWGTDLDAALADPGNEIFFDAATTQMRPILLEKAIRAGKHVYCEKPIATNLPEAVRICRLAEEKGVKNGVVQDKLFLPGLQKLKLLRDSGFFGRMISVRGEFGYWVFEGDWGQPAQRPSWNYRSQEGGGMILDMVCHWRYVLDNLFGEVKSVSCLGATHIPSRVDERGQPYEATADDAAYATFELQDGVIAHINMSWCTRVYRDDLVTFQVDGTLGSAVAGLSDCVFQSRVGTPRPVWNPDQKQTMDFYNHWQPVPDTAVFDNGFKVQWEMFIRHVVEDAPYRFTLREGAKGVQLVECALQSWKERRWIDVPTLEASERAVLQAAEEGHHHHHH”, the “soluble on expression in E. coli” value is listed as “soluble”.

“MSLTQTAFRSQLLTFNGDPAQSSQAAIYETDGLLIVDDGKVVAAGPYAQLAATLARDAIVHELRDKLIVPGFIDTHIHYPQTDMIASPAPGLLPWLDKYTFPTERQFGDPEHAREVADFFVDELLACGTTSALVYCTVHKQSADALFAASDARDLRMIAGKVLMDRNCPEFLRDTAQSGYDDSAELIDRWHGKGRQMYALTPRFAPTSTEAQLEACGELARRHPDVFVQSHVAENVDEVKWVGELFPGHRSYLDIYDRYGLLRPRAVYGHCIHLDDEDRRRMAETRTVVAHCPTSNFFLGSGLFDFDKAGEYDVPVTLATDVGGGTSFSMLQTMNEAHKVARLSGHHLTATRMFWLATAGAAQALDLADTVGTLAPRTEADFVVLDPQATPLLARRTKRADSLEELLFAFALLGDDRAVYRTYAAGQLVHERGAAPRPAAEGHHHHHH”: the “soluble on expression in E. coli” value is given as “soluble”.

With “MSLTRDEIAKYYEAHKGQFVSGRKVRLGLVIFPPRDDADALAAQVKSGAMTFADLAARHSIGPNPQNGGVIGDLLWSDLSMEWRDTLSELKPGDVSRVFLVEGRKAVLQLVASNEGKGQALDDVAEEIENILREPKMQERLQEYIGQLRSRAVIDIREGHHHHHH”, the “soluble on expression in E. coli” value is given as “soluble”.

On to “MSLTREVGQRREAEETAHKLAHTDPLTGCLNRRSMGPAVEQMVSTARTSGHEVVVMMMDLDNFKRSNDVHGHQAGDAVLLHTADRIRAILPAGSIIARLGGDEFACAAIFDPDHVESIDRLILRMNEAVAMPVRVDGLMLEVTASIGLAATSAADAGAPPALADTLLHRADLAMYQAKKAGRNRYCWFEQNMESELRFRSELEREIREGVARGEFVPYYEKQIDLETGELTGFEMLARWRSPRHGLLSPEIFIPIAEEIGLISELSENLIRQALRDARDWDPTLTLSVNISPIQLRDPWFAQKLLKLLVEANFPPHRLDIEITETCLHENVGVVRTLITSLKNQGIRISLDDFGTGYSSLAQLRTLPFDQIKIDRFFVSNLGKNKDSATIVEAISSLGKGMDLPITAEGIESPEVLDELRKFGKFKGQGFLYGQPGDASEIRAMLADRQLLQQQAEGHHHHHH”, for which the “soluble on expression in E. coli” value is recorded as “soluble”.

Consider “MSLTTVGIRGTFFDFVDDPWKHIGNEQAAARFHQDGLMVVTDGVIKAFGPYEKIAAAHPGVEITHIKDRIIVPGFIDGHIHLPQTRVLGAYGEQLLPWLQKSIYPEEIKYKDRNYAREGVKRFLDALLAAGTTTCQAFTSSSPVATEELFEEASRRNMRVIAGLTGIDRNAPAEFIDTPENFYRDSKRLIAQYHDKGRNLYAITPRFAFGASPELLKACQRLKHEHPDCWVNTHISENPAECSGVLVEHPDCQDYLGVYEKFDLVGPKFSGGHGVYLSNNEFRRMSKKGAAVVFCPCSNLFLGSGLFRLGRATDPEHRVKMSFGTDVGGGNRFSMISVLDDAYKVGMCNNTLLDGSIDPSRKDLAEAERNKLSPYRGFWSVTLGGAEGLYIDDKLGNFEPGKEADFVALDPNGGQLAQPWHQSLIADGAGPRTVDEAASMLFAVMMVGDDRCVDETWVMGKRLYKKSEGHHHHHH”, for which the “soluble on expression in E. coli” value is “soluble”.

Consider “MSLTVPQSITELDLKNLTNRTFHPSPVAWEDQVLYFLLLDRFSDGKETGYRDNRGRRVAKGETPLYQPGDAGNAIRTEPEAAVWRESGSRWCGGTLKGLASKMGYLKRMGVTAVWVSPLFKQCSFVPTYHGYGIQNFLEVDPHFGTADDLRELVHVAHANGIYVILDIILNHAGNIFAYDRGYTPYDGSTVYPVTGFRSADGTPNLPFGPIDTKANPDAWPDGAVWPRELQAANAYTRMGHIRDWDSYHEYLDGDFFDLKDIHLGEGEVDAFRPSPALLALCEVYKYWIALSDVDGYRIDTVKHMGAGATRFFASVIHEFAQAIGKENFYLIGEITGGRDNAFNTLATTGLNAALGVDDIPLRLEDLVKGRANPADYFNLFRNSLLVRKESHVWFRDKVVTVIDDHDQVCRGAKKERFCAGDPKWRRLVLNALALNTTTLGIPCVYYGTEQAFDGEGGDDRYLRECMFGGPFGAFRTRGVQFFDEENPVYREFAKILALRREKLPLRRGRQYLREISGDGVTFGLPYVIGGEIRSVVPWSRIFDTEEMVLAINTDADSPRTAWVLVDGSLHREGDRFAYRYSTDPGQVRGTTAVQRINDAVQAIQVTVPAAGFVMLEQREGHHHHHH”, for which the “soluble on expression in E. coli” value is “soluble”.

Turning to “MSLTVSARRADAQRNRELILDAAREQLREPGELKMNAVAKACGIGQGTLYRHFPTREDLLVEVYRHDVEELVAAASDMVSTRSPVEALAGWFERVAAYARVKNHVFAAVEAATWRDLAAHSLGPIGEAVELLLAAGRAEGSMRADVEARDVIVLIGWLSRLDDTELDERGPRLLSVLLDGLRTPQGEGHHHHHH”, the “soluble on expression in E. coli” value is recorded as “soluble”.

As for “MSLTYPYRTTMALNTYQYRETTMIDPKKIEQIARQVHESMPKGIREFGEDVEKKIRQTLQAQLTRLDLVSREEFDVQTQVLLRTREKLALLEQRISELENRSTEIKKQPDPETLPPTLEGGSHHHHHH”, the “soluble on expression in E. coli” value is given as “soluble”.

In the case of “MSLTYYLSIDYGGTNTKALIFDKLGHQIAVSSFETLKNETQSGHRQVNLVKTWNAITSAIREVIQISKLSPEQISAVACIGHGKGLYLLDNKLEPLEQGILSTDNRAKDLAQYFESKLDNIWELTRQHIFPSQSPVILRWLKDYQPETYKSIGAVLSAKDFIRYKLTGKVQQEYGDASGNHWINFQTGTYDPAILDFFGIREIENSLPELIDSADLVPGGISSQAAKETGLVEGTPVVGGLFDIDACALGSGVLESDTFSVISGTWNINTYPSLKPAKQDSGLMTSYFPDRRYLLEASSPTSAGNLNFMLKMLMHQEIDNAKSSGGSIYDNLEEFLTHTDATHHGLIFFPFLYGSNTSQDASACFFGLTTKSTKSQMIRAVYEGIAFAHKQHITDLIKSRGSVPKIIRFSGGATNSPAWMQMFSDILNFPIETVEGTELGGLGGAILARHALDKISLKEAVQDMVRVKAIYKPQLSEVKGYKKKYHAYQKLLETLDPIWSELGHLNEGHHHHHH”, the “soluble on expression in E. coli” value is “soluble”.

Consider “MSLVAMITTVVGSYPVVKKEETFLDKVKKVFGLYDEYKYAIERAVKDQVKAGVNIISDGQVRGDMVEIFTNNMYGFDGKRVVGRVEFIKPITLKDILYAKSIAKKLNPNVEIKGIITGPCTIASSVRVESCYSDNRDENLIYDIAKALRKEVEALKKHVPIIQIDEPILSTGMYDFDVARKAIDIIVDGLNIKFAMHVCGNVYNIIDELNKFNVDILDHEFASNKKNLVILESMEKKVGFGCVNTKVKKVESVEEIKSLIEEGIEILKNNEKLNKNLSDNILIDPDCGMRLLPIDVAFNKLKNMVEATKLIEGHHHHHH”, for which the “soluble on expression in E. coli” value is “soluble”.

As for “MSLVEQLVKELSKGLNTRDYPEGFFKEHLAFRLKINKLEPVKHPHIPDINSLLGVEKQKEVLLRNTAQFVKGLPANDVLLWGARGTGKSSLVKALLGVFGKEGLRIVQVTKHEIPELADLYEVLRDKEEKFILFFDDLTFEPHEDAFRLLKSIMEGDVEERPQNVLFTQLQTGDTSLRIWKKRINFRRKHSTKSFL”, the “soluble on expression in E. coli” value was “not soluble”.

Take “MSLVETPKCTCGNHGVMNKKEKIIFACSGASNVGELSNAAAVRLTKEGFGNKACTASLAIKTPSVMERVENAGEIVVIDGCPVSCAKRIADNSGVKVDQYIIITELGINKISDMDILDEDITKTVSAVKDGKSVCLDRKRENHKGSGCNCGCESKEGHHHHHH”: the “soluble on expression in E. coli” value is reported as “not soluble”.

With “MSLVHNPDNTKLSDATFVIFDIETTGLHGRYDDVIEFSARKIKNNSEIDHQQFFLKIDKPIPKTITEITKITDEMLEGGIDQQQGLEKIRNYLDDCVMVAHNGINFDLPFLQTQFEKYNIKPLTNPLIDTLCLSWALNPLFSSHTLSNICSKLKLEFDDERLHRAEYDTEALKKVFFYFKKQLKEMGINTLTEIDQNLNKKCQIDLMKRVFTNTAIVYVKNQRGFQNLYEMLSIALTDHNANRPLVLASSLAKFRKSFLLTENPVQGDIFKAALTKPINELEKAIEKVDFVLISQPNAYLGYTLREGLKKELINDAIKLVIKTATKLKKLVAVASDAYFIHPWENEYYKAIVCAKGLGGKWHRHFNNKEKEQTVPEVFLHTTDEMLKRMSFLGEDIAYKLVVENTNKIVKLLDLNELVPTKNKLYPPVMQDSNQKLIDKTWKQAEKRYGKNLPKLIKERIEKEEGHHHHHH”, the “soluble on expression in E. coli” value was “soluble”.

For “MSLVLKCSLCINDERITKILTVNGRPICKECKAFLEHPPDKIKIRKELEELLSQVDKAIVAYSGGKDSTVALYLAKEEYDIDVEAVMVDHGFMAPQAIENAKKVSEYLNVPLTIIREDYSEIFKDALLKAKSPCRKCSRRTMEALRKYALEKGYKYIISGHELPFGHHPYRLMSGGIIQIRLLSLMSEKERMEILKKLPFKLPELPGYTSNCLILGPALERYWEKHGYSFEHRRIAALVRYGLLDREKALKKVEKPKVPEWQWELVEKKLNLIVRSLEGHHHHHH”, the “soluble on expression in E. coli” value is “soluble”.

As to “MSLVTLKDIAAEAGVSIMTVSNVINGNHSKVSKNTIEKIEKIIQKYNYVPNLTARSLTAKSSKIIGIIVPIKGSFNNLFKDPYISELFGIIQNVVRENGYYLMVRSVKDVSDISALLKNWNMDGAIFLMPDYDNLIYSILKENKLPMVFLDSYSKIDNIISVGINDYKGGYIATRYLINNGHRKILFAGPCHKDGIPIPQIIKRLEGYKDALLESNIEFNESLIVDVEPNYEVGINLGRSICNKEFDVTAVFTTADIMGIGIIEGAKLNGKIVPNDLSVIGFDNLLPSVYVTPKLTTISQDIESKATKAVDLLIEYIEKGSVSNNKITLDVELVERQSVGQLSNEGHHHHHH”, the “soluble on expression in E. coli” value was “soluble”.

With “MSLYGKRLVVFAPLYVSNYCVNNCTYCGYKHCNDELKRKKLNKEQLIEEVKVLESLGHKRIALEAGEDPVNAPLDYILDCIKSIYSIKFDNGSIRRINVNIAATSVEDYKRLKDAEIGTYILFQETYHKPTYERLHVSGPKHNYNYHTTAMHRAREAGIDDIGMGVLYGLYDYKYETLAMLMHAMDLEETTGVGPHTLSVPRIRPAENVSLENYPYLVDDEDFKKIVAILRLAVPYAGLILSTREEPGLRDEIIALGVSQVSTGSCTGVGGYSESYIDPEEKPQFEVGDHRSPVEMIESLMEAGYIPSYCTACYREGRTGERFMDIVKSGELYKICEANALITLKEFIDDYGTDRTREIGDKLIKKSIDEIDNESFRKSVEEKINKISNGTRDLRFEGHHHHHH”, the “soluble on expression in E. coli” value is recorded as “not soluble”.

Regarding “MSLYIHQTACISAQPAFADPASDHVAAAVDNKLYAIDSNYDSIPPNVLRRLGKAVKMGIATGHSLISKHPVDGIVLGTANGGLEDCIKFLNQIIEFEEGRLTPTNFVQSTTNAIAGQLGIMSSNKGYNITHVHRGLAFENALIDIEMLLNEYPSNTYLLGGVDEISAYNYTIEKLAGTYKSETISSAQLFSSQTTGTIAGEGAAMFLVNTNRLNAAAAIKGIKTYNNPSPEAIKKHLEDFLAKHLPQNEKIDVLFSGKNGDVCLNSFYEVCAQQLGKETTVCYYKQLTGDFPTVTALALWFATRFIEDSNNLPVLNIKKTGAVKNILLYNTYKGYQHSFILVSEGHHHHHH”, the “soluble on expression in E. coli” value is listed as “not soluble”.
